Test results reported in patent US20170319722A1.
Square brackets hold non-standard residues; d marks the D form. Primed or numbered codes have the meaning given here. Ends that are not written are not given here. * marks the point of attachment. PEG3′ = PEG linker of three ethylene glycol repeat units; Biotin = O=C1N[C@H]2[C@H](CS[C@H]2CCCCC(=O)*)N1; Lys(N3) = [N-]=[N+]=NCCCC[C@H](N)C(=O)O; Pra = C#CC[C@H](N)C(=O)O

Legend:
[1] = target: His-tagged CD8α human recombinant protein (TP760215, Origene) (human) (UniProt P01732); test: sandwich ELISA; biotinylated ligand on NeutrAvidin plate, His-tagged CD8α titrated, anti-His-AP detection
[2] = target: His-tagged CD8α human recombinant protein (TP760215, Origene) (human) (UniProt P01732); test: sandwich ELISA; range told of the group, upper end tied to Cy(rwfnv) by the legend of FIG. 5
[3] = target: His-tagged CD8α human recombinant protein (MBS968456, MyBioSource) (human) (UniProt P01732); test: sandwich ELISA; biligand against its single macrocycles Cy(HGRGH) and Cy(wplrf)
[4] = target: His-tagged CD8α human recombinant protein (MBS968456, MyBioSource) (human) (UniProt P01732); test: sandwich ELISA; biotinylated biligand on NeutrAvidin plate, His-tagged CD8α titrated, anti-His-AP detection
[5] = target: His-tagged CD8α human recombinant protein (MBS968456, MyBioSource) (human) (UniProt P01732); test: sandwich ELISA; biotinylated biligand on NeutrAvidin plate, His-tagged CD8α titrated
[6] = target: His-tagged CD8α human recombinant protein (MBS968456, MyBioSource) (human) (UniProt P01732); test: ELISA with His-tagged CD8α human recombinant protein

His-tagged CD8α human recombinant protein (MBS968456, MyBioSource) (human), sequence (P01732 22-182 limits assumed): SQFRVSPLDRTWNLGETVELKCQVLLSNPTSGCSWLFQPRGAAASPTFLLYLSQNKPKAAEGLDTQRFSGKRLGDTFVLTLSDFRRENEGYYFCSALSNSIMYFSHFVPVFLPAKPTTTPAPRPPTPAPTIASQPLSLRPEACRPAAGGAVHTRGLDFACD
His-tagged CD8α human recombinant protein (TP760215, Origene) (human), sequence (P01732 22-182 limits assumed): as above

Row | Binder | EC50 [1] [nM] | fold below the affinity of the optimal linker (PEG5) biligand [5] [fold] | also measured
1 | WPLRF (all residues D-amino acids (lower case); N-terminal biotin-PEG3; triazole-cyclized (Cy) between flanking Pra and Az4) [biotin-PEG3-Cy(wplrf)] | 16 |  | 
2 | WSVNV (all residues D-amino acids (lower case); N-terminal biotin-PEG3; triazole-cyclized (Cy) between flanking Pra and Az4) [biotin-PEG3-Cy(wsvnv)] | 9 |  | 
3 | RWFNV (all residues D-amino acids (lower case); N-terminal biotin-PEG3; triazole-cyclized (Cy) between flanking Pra and Az4) [biotin-PEG3-Cy(rwfnv)] | 62 |  | EC50 [2]: 62 nM
4 | Biotin-PEG3-Cy(HGRGH)-PEG5-Cy(wplrf) (not fully specified (some residues, C-terminus); printed as Biotin-PEG3-Cy(HGRGH)-PEG5-Cy(wplrf); numbers in words are those of the source; also: joined C-terminally through a PEG5 linker to the second macrocycle, triazole to a chain's N/C-terminus) peptide 1: {Biotin-PEG3′}-[Pra]HGRGH peptide 2: [Pra][dW][dP][dL][dR][dF] |  |  | fold improvement in affinity relative to the individual PCC macrocyclic ligands [3]: > 30 fold; EC50 [4]: 0.2 nM
5 | Biotin-PEG3-Cy(HGRGH)-PEG3-Cy(wplrf) (not fully specified (some residues, C-terminus); numbers in words are those of the source; also: joined C-terminally through a PEG3 linker to the second macrocycle, triazole to a chain's N/C-terminus) peptide 1: {Biotin-PEG3′}-[Pra]HGRGH peptide 2: [Pra][dW][dP][dL][dR][dF] |  | 10 | 
6 | Biotin-PEG3-Cy(HGRGH)-PEG4-Cy(wplrf) (not fully specified (some residues, C-terminus); printed as Biotin-PEG3-Cy(HGRGH)-PEG4-Cy(wplrf); numbers in words are those of the source; also: joined C-terminally through a PEG4 linker to the second macrocycle, triazole to a chain's N/C-terminus) peptide 1: {Biotin-PEG3′}-[Pra]HGRGH peptide 2: [Pra][dW][dP][dL][dR][dF] |  | 10 | 
7 | Biotin-PEG3-Cy(HGRGH)-PEG6-Cy(wplrf) (not fully specified (some residues, C-terminus); printed as Biotin-PEG3-Cy(HGRGH)-PEG6-Cy(wplrf); numbers in words are those of the source; also: joined C-terminally through a PEG6 linker to the second macrocycle, triazole to a chain's N/C-terminus) peptide 1: {Biotin-PEG3′}-[Pra]HGRGH peptide 2: [Pra][dW][dP][dL][dR][dF] |  | 10 | 
8 | Biotin-PEG3-Cy(HGRGH)-PEG7-Cy(wplrf) (not fully specified (some residues, C-terminus); printed as Biotin-PEG3-Cy(HGRGH)-PEG7-Cy(wplrf); numbers in words are those of the source; also: joined C-terminally through a PEG7 linker to the second macrocycle, triazole to a chain's N/C-terminus) peptide 1: {Biotin-PEG3′}-[Pra]HGRGH peptide 2: [Pra][dW][dP][dL][dR][dF] |  | 10 | 
9 | FFRLY (all residues D-amino acids (lower case); N-terminal biotin-PEG3; triazole-cyclized (Cy) between flanking Pra and Az4) [biotin-PEG3-Cy(ffrly)] | 56 |  | 
10 | Cy(Ghtwp)-Lys(Biotin)-PEG1-Cy(hGrGh) (not fully specified (C-terminus); printed as Cy(Ghtwp)-Lys(Biotin)-PEG1-Cy(hGrGh); also: triazole to a chain's N/C-terminus, triazole to a chain's N/C-terminus) peptide 1: [Pra]G[dH][dT][dW][dP] peptide 2: [Pra][dH]G[dR]G[dH][Lys(N3)] |  |  | EC50 [6]: 0.058 nM
